Patent publication US20240132546A1 (Molecular Partners, published 2024)

Assays:
[1] = molecular target: T1, biotinylated full-length HER2 (human, UniProt P04626 23-652, limits assumed, biotinylated (site not stated)); test: SPR, single trace, 500 nM analyte over biotinylated HER2 on the chip, double-referenced, 1:1 Langmuir fit [continued]
T1 construct: Immobilised on the SPR chip; also called bio-HER2; Human Epidermal Growth Factor Receptor 2
Description: (§1) FIG. 4: Single-trace SPR profiles of DTPA-coupled DARPins (also referred to as constructs, see Table 7) against biotinylated full-length HER2. As reference, plots 1 and 2 show the profiles of the HER2-binding parental DARPin06 (SEQ ID NO: 6) and DARPin11 (SEQ ID NO: 11), respectively. Plots 3, 4, 5, 6 and 7 show the profiles of construct 6 (DARPin06-GSGSC-DTPA), construct 7 (DARPin07-GSGSC-DTPA), construct 8 (DARPin08-GSGSC-DTPA), construct 9 (DARPin09-GSGSC-DTPA) and construct 10 (DARPin10-GSGSC-DTPA), respectively. Plots 8 and 9 show construct 11 (DARPin11-GSGSC-DTPA) and construct 12 (DARPin12-GSGSC-DTPA), respectively. The GSGSC tag (SEQ ID NO: 14) was fused to the C-terminal end of the DARPins. All analytes (500 nM) were injected in succession for 120s, dissociation was recorded for 180s (25 ul/min of PBS-Tween20 (0.005%)). Each injection was followed by a regeneration step with glycine pH2.0 for 60s. The data was double referenced (control spot and buffer injection) and fitted to a 1:1 Langmuir model.
A surface plasmon resonance (SPR) assay was used to determine if the charge-engineered DARPin variants derived from the parental DARPin06 (SEQ ID NO: 6) and DARPin11 (SEQ ID NO: 11) could still bind to HER2. All SPR data were generated using a Bruker Sierra SPR-32 instrument with PBS-T (0.005% Tween 20) as running buffer. A new Bruker BTC Chip was conditioned according to the manufacturer's protocol. The chip was coated with biotinylated target (bio-HER2) to reach a signal intensity of approximatively 600 RU. All analytes (500 nM) were injected in succession for 120s, dissociation was recorded for 180s (25 ul/min). Each injection was followed by a regeneration step with glycine pH 2.0 for 60s. The data was double referenced (control spot and buffer injection) and fitted to a 1:1 Langmuir model. […] A DTPA coupled DARPin is also referred to as a “construct”. SPR curves are shown in FIG. 4 where plots 1 and 2 show the profiles of the HER2-binding parental DARPin06 and DARPin11 (SEQ ID NOs: 6 and 11, respectively).

[2] = molecular target: T1, biotinylated full-length HER2; test: SPR multi-trace, biotinylated HER2 on chip, analyte 0.617-50 nM, global 1:1 Langmuir fit
Description: (§2) FIGS. 9A-9F: Multi-trace SPR profiles of DTPA-coupled DARPins (also referred to as constructs, see Tables 7 and 16) against biotinylated full-length HER2. FIGS. 9A, 9B, 9C, 9D, 9E, and 9F show the profiles of construct 6 (DARPin06-GSGSC-DTPA), construct 8 (DARPin08-GSGSC-DTPA), construct 13 (DARPin13-GSGSC-DTPA), construct 14 (DARPin14-GSGSC-DTPA), construct 15 (DARPin15-GSGSC-DTPA) and construct 16 (DARPin16-GSGSC-DTPA), respectively. The GSGSC tag (SEQ ID NO: 14) was fused to the C-terminal end of the DARPins. Three-fold dilutions of the analytes (50, 16.667, 5.556, 1.852 and 0.617 nM) were injected for 300s, dissociation was recorded for 1500s (25 ul/min). Each injection was followed by a regeneration step with glycine pH 2.0 for 60s. Dissociation constants (KD) were calculated from the globally fitted on- and off-rates using standard 1:1-Langmuir model (see Table 17).
(§3) Binding kinetics of the constructs to the target protein HER2 was measured in a multi-trace SPR assay. A new Xantec NAHLC200M chip was conditioned according to the manufacturer's protocol. The chip was coated with biotinylated target (bio-HER2, 10 ug/mL) for 900s to reach a signal intensity of approximately 1200-1300 RU. Three-fold dilutions of the analytes (50, 16.667, 5.556, 1.852 and 0.617 nM) were injected for 300s, dissociation was recorded for 1500s (25 ul/min). Each injection was followed by a regeneration step with glycine pH 2.0 for 60s. The signals (i.e. resonance unit (RU) values) of empty surface and a reference injection (i.e. injection of running buffer only) were subtracted from the RU traces obtained injecting the constructs (double-referencing). Dissociation constants (KD) were calculated from the globally fitted on- and off-rates using standard 1:1-Langmuir model.

[3] = molecular target: T1, biotinylated full-length HER2; test: as above; remark: listed apart in the source
Description: as §2, §3

[4] = molecular target: T1, biotinylated full-length HER2; test: SPR, single trace, 500 nM analyte over biotinylated HER2 on the chip, double-referenced, 1:1 Langmuir fit
Description: as §1
A surface plasmon resonance (SPR) assay was used to determine if the charge-engineered DARPin variants derived from the parental DARPin06 (SEQ ID NO: 6) and DARPin11 (SEQ ID NO: 11) could still bind to HER2. […] All analytes (500 nM) were injected in succession for 120s, dissociation was recorded for 180s (25 ul/min). […]

Kd [1] | Kd [2] | Kd [3] | koff [3] | kon [3] | Kd [4] | Binder
1440 pM |  |  |  |  |  | DARPin09-GSGSC-DTPA (designed binder, maleimide-DTPA coupled to the C-terminal Cys of the GSGSC tag, Charge variant of DARPin06; His-TEV tag cleaved off; possible N-terminal GS not included; also called construct 9) DLGTQLLQAAESGQLDTVRTLLKAGADVNAQDEYGLTPLYLATAHGHLQIVQVLLSAGADVNAQDAIGFTPLHLAAFIGHLQIAQVLLSAGADVNAQDKFGTTPAQIAATAGNQQIASVLQQAAGSGSC
 | < 1000 pM | 357 pM | 0.000138 s⁻¹ | 386000 M⁻¹ s⁻¹ |  | DARPin13-GSGSC-DTPA (designed binder, maleimide-DTPA coupled to the C-terminal Cys of the GSGSC tag, Charge variant derived from DARPin06; His-TEV tag cleaved off; possible N-terminal GS not included; also called construct 13) DLGTQLLQAAESGQLDEVHDLLQAGADVNAQDEYGLTPLYLATAHGHLEIVTVLLEAGADVNAQDAIGFTPLHLAAFIGHLEIATVLLEAGADVNAQDKFGKTPADIAAGAGNEDIAEVLQKAAGSGSC
 |  |  |  |  | 57.5 pM | parental DARPin06 (designed binder) DLGKKLLEAARAGQDDEVRELLKAGADVNAKDEYGLTPLYLATAHGHLEIVEVLLKAGADVNAVDAIGFTPLHLAAFIGHLEIAEVLLKAGADVNAQDKFGKTPADIAAGAGNEDIAEVLQKAA
226 pM |  |  |  |  |  | DARPin11-GSGSC-DTPA (designed binder, maleimide-DTPA coupled to the C-terminal Cys of the GSGSC tag, Parent; His-TEV tag cleaved off; possible N-terminal GS not included; also called construct 11; DTPA coupled parental DARPin11) DLGIKLLFAAAKGQDDEVRELLKAGADVNAKDFQGVTPLHIAAQSGHLEIVEVLLKAGADVNAKDVTGDTPLHLAAQHGHLEIVEVLLKAGADVNAQDERGWTPADLAADWGHEDIAEVLQKAAGSGSC

Further lines, the binder ahead of its results:

Binder | Kd [1] | Kd [2] | Kd [3] | koff [3] | kon [3] | Kd [4]
DARPin07-GSGSC-DTPA (designed binder, maleimide-DTPA coupled to the C-terminal Cys of the GSGSC tag, Charge variant of DARPin06 (negative control for kidney uptake, higher pI); His-TEV tag cleaved off; possible N-terminal GS not included; also called construct 7) DLGTQLLRAAESGQLDTVRTLLKAGADVNAKDEYGLTPLYLATAHGHLQIVRVLLQAGADVNAKDAIGFTPLHLAAFIGHLKIAEVLLKAGADVNAQDKFGKTPAQIAATAGNQQIASVLQKAAGSGSC | 456 pM |  |  |  |  | 
DARPin08-GSGSC-DTPA (designed binder, maleimide-DTPA coupled to the C-terminal Cys of the GSGSC tag, Charge variant of DARPin06; His-TEV tag cleaved off; possible N-terminal GS not included; also called construct 8) DLGTQLLRAAESGQLDEVRELLKAGADVNAQDEYGLTPLYLATAHGHLEIVTVLLEAGADVNAQDAIGFTPLHLAAFIGHLEIATVLLEAGADVNAQDKFGKTPADIAAGAGNEDIAEVLQKAAGSGSC | 583 pM | < 1000 pM | 170 pM | 8.82e-05 s⁻¹ | 521000 M⁻¹ s⁻¹ | 
DARPin06-GSGSC-DTPA (designed binder, maleimide-DTPA coupled to the C-terminal Cys of the GSGSC tag, Parent; also called construct 6; DTPA coupled parental DARPin06) DLGKKLLEAARAGQDDEVRELLKAGADVNAKDEYGLTPLYLATAHGHLEIVEVLLKAGADVNAVDAIGFTPLHLAAFIGHLEIAEVLLKAGADVNAQDKFGKTPADIAAGAGNEDIAEVLQKAAGSGSC |  |  | 216 pM | 0.000141 s⁻¹ | 653000 M⁻¹ s⁻¹ | 284 pM
DARPin16-GSGSC-DTPA (designed binder, maleimide-DTPA coupled to the C-terminal Cys of the GSGSC tag, Charge variant derived from DARPin06; His-TEV tag cleaved off; possible N-terminal GS not included; also called construct 16) DLGTQLLEAAESGQLDEVRELLKAGADVNAQDEYGLTPLYLATAHGHLEIVTVLLEAGADVNAQDAIGFTPLHLAAFIGHLEIATVLLEAGADVNAQDKFGTTPADIAAGAGNEDIAEVLQKAAGSGSC |  | < 1000 pM | 615 pM | 0.00026 s⁻¹ | 422000 M⁻¹ s⁻¹ | 
DARPin14-GSGSC-DTPA (designed binder, maleimide-DTPA coupled to the C-terminal Cys of the GSGSC tag, Charge variant derived from DARPin06; His-TEV tag cleaved off; possible N-terminal GS not included; also called construct 14) DLGTQLLEAAESGQLDEVRELLQAGADVNAQDEYGLTPLYLATAHGHLEIVTVLLEAGADVNAQDAIGFTPLHLAAFIGHLEIATVLLEAGADVNAQDKFGKTPADIAAGAGNEDIAEVLQKAAGSGSC |  | < 1000 pM | 230 pM | 0.000121 s⁻¹ | 524000 M⁻¹ s⁻¹ | 
DARPin15-GSGSC-DTPA (designed binder, maleimide-DTPA coupled to the C-terminal Cys of the GSGSC tag, Charge variant derived from DARPin06; His-TEV tag cleaved off; possible N-terminal GS not included; also called construct 15) DLGTQLLRAAESGQLDEVRELLKAGADVNAQDEYGLTPLYLATAHGHLEIVTVLLEAGADVNAQDAIGFTPLHLAAFIGHLEIATVLLEAGADVNAQDNFGTTPADIAAGAGNEDIAEVLQQAAGSGSC |  | < 1000 pM | 637 pM | 0.000214 s⁻¹ | 336000 M⁻¹ s⁻¹ | 
DARPin10-GSGSC-DTPA (designed binder, maleimide-DTPA coupled to the C-terminal Cys of the GSGSC tag, Charge variant of DARPin06; His-TEV tag cleaved off; possible N-terminal GS not included; also called construct 10) DLGTQLLQAAESGQLDTVRELLKAGADVNAQDEYGLTPLYLATAHGHLQIVRVLLQAGADVNAQDAIGFTPLHLAAFIGHLEIATVLLKAGADVNAQDKFGKTPADIAATAGNQQIASVLQKAAGSGSC | 622 pM |  |  |  |  | 
DARPin12-GSGSC-DTPA (designed binder, maleimide-DTPA coupled to the C-terminal Cys of the GSGSC tag, Charge variant of DARPin11; His-TEV tag cleaved off; possible N-terminal GS not included; also called construct 12) DLGIQLLFAAAKGQLDTVRTLLQAGADVNAKDFQGVTPLHIAAQSGHLQIVEVLLQAGADVNAKDVTGDTPLHLAAQHGHLQIVTVLLQAGADVNAQDERGWTPADLAADWGNQQIAEVLQQAAGSGSC | 982 pM |  |  |  |  | 
